Patent publication US20250382352A1 (SCG CELL THERAPY PTE, published 2025)
Substitutions are numbered along the chain they refer to.

B1: BsAb2-5-015 (bispecific antibody)
heavy: not shown
light: QTVVTQEPSFSVSPGGTVTLTCRSSTGAVTTSNYANWVQQTPGQAPRGLIGGTNKRAPGVPDRFSGSILGDKAALTITGAQADDESDYYCALWYSNLWVFGGGTKLTVLRTVAAPSVFIFPPSDEQLKSGTASVVCLLNNFYPREAKVQWKVDNALQSGNSQESVTEQDSKDSTYSLSSTLTLSKADYEKHKVYACEVTHQGLSSPVTKSFNRGEC
notes: also called VH3VL5
B2: BsAb2-5-020 (bispecific antibody)
heavy: not shown
light: B1 light
notes: also called VH4VL5
B3: BsAb2-6-013 (bispecific antibody)
heavy: not shown
light: QAVVTQEPSLTVSPGGTVTLTCRSSTGAVTTSNYANWVQQKPGQAPRGLIGGTNKRAPGTPARFSGSLLGDKAALTLSGVQPEDEAEYFCALWYSNLWVFGGGTKLTVLRTVAAPSVFIFPPSDEQLKSGTASVVCLLNNFYPREAKVQWKVDNALQSGNSQESVTEQDSKDSTYSLSSTLTLSKADYEKHKVYACEVTHQGLSSPVTKSFNRGEC
notes: also called VH3VL3
B4: BsAb2-6-012 (bispecific antibody)
heavy: not shown
light: B3 light with A2T, F89Y
notes: also called VH3VL2
B5: BsAb2-6-005 (bispecific antibody)
heavy: not shown
light: B1 light
notes: also called VH1VL5
B6: BsAb2-6-010 (bispecific antibody)
heavy: not shown
light: B1 light
notes: also called VH2VL5
B7: BsAb2-6-025 (bispecific antibody)
heavy: not shown
light: B1 light
notes: also called VH5VL5
B8: BsAb2-5-030 (bispecific antibody)
heavy: not shown
light: B1 light
notes: also called VH6VL5
B9: BsAb2-6-030 (bispecific antibody)
heavy: not shown
light: B1 light
notes: also called VH6VL5
B10: BsAb2-5-025 (bispecific antibody)
heavy: not shown
light: B1 light
notes: also called VH5VL5
B11: BsAb2-5-005 (bispecific antibody)
heavy: not shown
light: B1 light
notes: also called VH1VL5
B12: BsAb2-5-001 (bispecific antibody)
heavy: not shown
light: B3 light with A2T, G48A, G59W, F89Y
notes: also called VH1VL1
B13: BsAb2-5-002 (bispecific antibody)
heavy: not shown
light: B3 light with A2T, F89Y
notes: also called VH1VL2
B14: BsAb2-6-002 (bispecific antibody)
heavy: not shown
light: B3 light with A2T, F89Y
notes: also called VH1VL2
B15: BsAb2-5-008 (bispecific antibody)
heavy: not shown
light: B3 light
notes: also called VH2VL3
B16: BsAb2-6-003 (bispecific antibody)
heavy: not shown
light: B3 light
notes: also called VH1VL3
B17: BsAb2-5-006 (bispecific antibody)
heavy: not shown
light: B3 light with A2T, G48A, G59W, F89Y
notes: also called VH2VL1
B18: BsAb2-5-023 (bispecific antibody)
heavy: not shown
light: B3 light
notes: also called VH5VL3
B19: BsAb2-6-028 (bispecific antibody)
heavy: not shown
light: B3 light
notes: also called VH6VL3
B20: BsAb2-5-028 (bispecific antibody)
heavy: not shown
light: B3 light
notes: also called VH6VL3
B21: BsAb2-6-022 (bispecific antibody)
heavy: not shown
light: B3 light with A2T, F89Y
notes: also called VH5VL2
B22: BsAb2-5-007 (bispecific antibody)
heavy: not shown
light: B3 light with A2T, F89Y
notes: also called VH2VL2
B23: BsAb2-5-027 (bispecific antibody)
heavy: not shown
light: B3 light with A2T, F89Y
notes: also called VH6VL2
B24: BsAb2-5-026 (bispecific antibody)
heavy: not shown
light: B3 light with A2T, G48A, G59W, F89Y
notes: also called VH6VL1
B25: BsAb2-5-003 (bispecific antibody)
heavy: not shown
light: B3 light
notes: also called VH1VL3
B26: BsAb2-6-008 (bispecific antibody)
heavy: not shown
light: B3 light
notes: also called VH2VL3
B27: BsAb2-5-022 (bispecific antibody)
heavy: not shown
light: B3 light with A2T, F89Y
notes: also called VH5VL2
B28: BsAb2-6-007 (bispecific antibody)
heavy: not shown
light: B3 light with A2T, F89Y
notes: also called VH2VL2
B29: BsAb2-6-023 (bispecific antibody)
heavy: not shown
light: B3 light
notes: also called VH5VL3
B30: BsAb2-5-021 (bispecific antibody)
heavy: not shown
light: B3 light with A2T, G48A, G59W, F89Y
notes: also called VH5VL1
B31: BsAb2-6-027 (bispecific antibody)
heavy: not shown
light: B3 light with A2T, F89Y
notes: also called VH6VL2
B32: BsAb2-5-004 (bispecific antibody)
heavy: not shown
light: B1 light with V38Y, G48T
notes: also called VH1VL4
B33: BsAb2-6-029 (bispecific antibody)
heavy: not shown
light: B1 light with V38Y, G48T
notes: also called VH6VL4 (printed VH6VLA)
B34: BsAb2-6-024 (bispecific antibody)
heavy: not shown
light: B1 light with V38Y, G48T
notes: also called VH5VL4
B35: BsAb2-6-014 (bispecific antibody)
heavy: not shown
light: B1 light with V38Y, G48T
notes: also called VH3VL4
B36: BsAb2-6-019 (bispecific antibody)
heavy: not shown
light: B1 light with V38Y, G48T
notes: also called VH4VL4 (printed VH4VLA)
B37: BsAb2-5-014 (bispecific antibody)
heavy: not shown
light: B1 light with V38Y, G48T
notes: also called VH3VL4
B38: BsAb2-6-004 (bispecific antibody)
heavy: not shown
light: B1 light with V38Y, G48T
notes: also called VH1VL4
B39: BsAb2-6-009 (bispecific antibody)
heavy: not shown
light: B1 light with V38Y, G48T
notes: also called VH2VL4

molecular target: T1, human CD3ε recombinant protein (human, UniProt P07766 23-126); assay: ELISA, recombinant protein
T1 construct: also called human CD3E; huCD3ε
Protocol: (§1) Anti-HBsAg/anti-CD3 bispecific antibodies generated in Example 1 are analyzed by standard ELISA techniques for their binding properties to HBsAg, human CD3E, and rhesus CD3ε recombinant protein, respectively.

T1 sequence (P07766 23-126 limits assumed): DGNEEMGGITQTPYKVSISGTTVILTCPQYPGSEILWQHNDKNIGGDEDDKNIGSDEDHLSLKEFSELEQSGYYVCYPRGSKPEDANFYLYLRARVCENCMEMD

Binder	EC50
B1	270 pM
B2	280 pM
B3	330 pM
B4	320 pM

molecular target: T2, rhesus CD3ε recombinant protein (rhesus); assay: ELISA, recombinant protein
T2 construct: also called rhesus CD38 [sic]
Protocol: as §1

Binder	EC50
B5	180 pM
B1	270 pM
B6	230 pM
B7	500 pM
B8	230 pM
B2	260 pM
B9	130 pM
B10	250 pM
B11	310 pM
B12	720 pM
B13	300 pM
B14	140 pM
B15	240 pM
B16	170 pM
B17	2120 pM
B18	220 pM

Binder	EC50
B19	210 pM
B20	310 pM
B3	260 pM
B21	230 pM
B22	400 pM
B23	280 pM
B24	2090 pM
B25	340 pM
B4	240 pM
B26	280 pM
B27	310 pM
B28	190 pM
B29	260 pM
B30	3880 pM
B31	210 pM

Molecular target: T3, HBsAg recombinant protein (hepatitis B virus)
T3 chain: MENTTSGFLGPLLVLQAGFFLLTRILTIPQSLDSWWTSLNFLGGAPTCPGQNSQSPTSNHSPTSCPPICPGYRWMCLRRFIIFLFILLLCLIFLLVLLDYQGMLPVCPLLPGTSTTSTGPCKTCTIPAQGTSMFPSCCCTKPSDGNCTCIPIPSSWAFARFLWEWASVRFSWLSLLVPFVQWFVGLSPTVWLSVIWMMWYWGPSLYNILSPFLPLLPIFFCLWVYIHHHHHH
Assay: ELISA, recombinant protein
Protocol: as §1

Binder	EC50
B32	360 pM
B5	450 pM
B33	480 pM
B34	510 pM
B1	170 pM
B6	460 pM
B7	1500 pM
B8	150 pM
B35	310 pM
B2	160 pM
B36	530 pM
B9	480 pM
B37	200 pM
B38	430 pM
B39	450 pM
B10	200 pM
B11	150 pM
B12	230 pM
B13	160 pM
B14	460 pM

Binder	EC50
B15	190 pM
B16	470 pM
B17	900 pM
B18	180 pM
B19	830 pM
B20	190 pM
B3	470 pM
B21	770 pM
B22	230 pM
B23	160 pM
B24	180 pM
B25	210 pM
B4	450 pM
B26	570 pM
B27	160 pM
B28	420 pM
B29	1090 pM
B30	140 pM
B31	720 pM
